From patent US20190367592A1 (AC IMMUNE, published 2019) come the findings set out here.

In assay [1] the target is T1, recombinant human Tau monomer, 2N4R isoform (amino acids 2-441) (human, UniProt P10636-8 2-441).
T1 construct: range 2-441; N-terminal His-tag removed with TEV protease; also called monomeric Tau
Description: SPR, hIgG captured, Tau monomer analyte, 1:1 fit. As to the method:
Affinity of selected antibodies was assessed at 25° C. using a Biacore T200 instrument, the GE Biacore human IgG capture kit and a CM5 Series S chip. The hIgG were diluted to 0.25 μg/ml in 10 mM HEPES pH7.4, 150 mM NaCl, 0.05% Tween 20 (running buffer, HBSP) and captured at a flow rate of 10 μl/min for 150 seconds. Kinetic data was collected for Human Tau monomer injected at concentrations of 0, 0.4, 1.2, 3.7, 11, 11, 33 and 100 nM in HBSP, using a flow rate of 30 μl/min, a 300 second association phase and a 600 second dissociation phase. Between cycles the surface was regenerated using two sequential 30 second injections of 3M MgCl at 10 μl/min. Data was fit to a 1:1 binding model (Table 15).

In assay [2] the target is T1, recombinant human Tau monomer, 2N4R …. The assay can be described thus: SPR, hIgG captured, Tau monomer analyte; mean of four. As to the method: Affinity was assessed at 25° C. using a Biacore T200 instrument, the GE Biacore human IgG capture kit and a CM5 Series S chip. The hIgG were diluted to 2 μg/ml in 10 mM HEPES pH7.4, 150 mM NaCl, 0.05% Tween 20 (running buffer, HBSP) and captured at a flow rate of 10 μl/min for 22 seconds. […] Between cycles the surface was regenerated using a 30 second injection of 3M Magnesium Chloride at 10 μl/min. A 1:1 binding model was fitted to the data and affinities for hu37D3-H9.v5 and hu37D3-H9.v5.3 (also referred to herein as hu37D3-H9.v5 N28D) calculated using kinetic analysis. Parameters used for the 1:1 fitting included the Instrument default of local fitting for the “RI” parameter.
A general note: SPR reads the build-up and loss of mass on a sensor chip optically.

A further assay deals with T2, MAPT(10-24) (human, also: biotinylated, site not given here).
T2 construct: also called Tau fragment 10-24
T2 peptide: VMEDHAGTYGLGDRK
The assay can be described thus: ELISA, biotinylated peptide on Neutravidin plate, IgG titrated, A450 nm. As for the experimental part: (§1) Following a comparison of 37D3-H9 binding to biotinylated Tau monomer and biotinylated peptide (MAPT_10-24), binding of 37D3-H9 to additional biotinylated peptides was also assessed. Nunc maxisorp 96-well microplates were coated at 4° C. for >12 hours with Neutravidin diluted to 2 μg/ml in 50 mM Sodium Carbonate Buffer, pH 9.6. All subsequent incubations were performed at room temperature. After coating, plates were blocked with Superblock™ (PBS) Blocking Buffer (Thermo Fisher Scientific) for two hours then washed thoroughly with PBS, 0.05% Polysorbate 20. Wells were then exposed to biotinylated Tau peptides (Table 20) or Avi-tag biotinylated Tau monomer at 1 μg/ml for one hour and washed as previously. Peptides were synthesized using standard solid-phase Fmoc chemistry (see, e.g., Fmoc solid phase peptide synthesis: A practical approach; Chan, W. C., White, P. D., Eds.; Oxford University Press: New York, 2000). Antibodies 37D3-H9 mIgG2a and hu37D3-H9.v5 hIgG1, serially diluted from 500 nM to 50 pM in 90% Superblock™ (PBS) Blocking Buffer, were allowed to bind biotinylated-Tau coated wells for 90 minutes. Wells were washed as previously and bound antibody detected with peroxidase-conjugated secondary antibody (Invitrogen/Life Technologies) diluted 1/1000 in Superblock™ Blocking Buffer (Rabbit anti-Mouse IgG or Goat Anti-Human IgG (H+L) respectively). After twenty minutes wells were washed as previously and signal developed with TMB Microwell 2-Component Substrate (KPL). Reactions were stopped by addition of 1M Phosphoric Acid and absorbance at 450 nm was measured with a SpectraMax M2 platereader.

The target of a further assay is T3, MAPT(2-24) (human, biotinylated).
T3 construct: also called Tau fragment 2-24
T3 peptide: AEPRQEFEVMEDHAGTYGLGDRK
Described as above. As for the experimental part:
as §1

The target of a further assay is T4, MAPT(2-34) (human, biotinylated).
T4 construct: also called Tau fragment 2-34
T4 peptide: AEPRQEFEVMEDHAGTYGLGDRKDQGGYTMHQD
Described as above. As to the method:
as §1

The target of assay [3] is T1, recombinant human Tau monomer, 2N4R …. The assay can be described thus: SPR, captured IgG, Tau monomer analyte, 1:1 model; fit-quality column: Yes. The procedure, abridged: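 Affinities were derived by 1:1 fitting of multi-cycle SPR kinetics, with captured antibody and Tau monomer flowed at 0, 26.5 and 265 nM in HBSP pH7.4 at 25° C. Stability Index was Normalized Rmax (Rmax/Ligand Level) post-stress divided by that pre-stress.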
Target sequence in this assay (P10636 other isoform, or with tags, fused parts or gaps limits assumed): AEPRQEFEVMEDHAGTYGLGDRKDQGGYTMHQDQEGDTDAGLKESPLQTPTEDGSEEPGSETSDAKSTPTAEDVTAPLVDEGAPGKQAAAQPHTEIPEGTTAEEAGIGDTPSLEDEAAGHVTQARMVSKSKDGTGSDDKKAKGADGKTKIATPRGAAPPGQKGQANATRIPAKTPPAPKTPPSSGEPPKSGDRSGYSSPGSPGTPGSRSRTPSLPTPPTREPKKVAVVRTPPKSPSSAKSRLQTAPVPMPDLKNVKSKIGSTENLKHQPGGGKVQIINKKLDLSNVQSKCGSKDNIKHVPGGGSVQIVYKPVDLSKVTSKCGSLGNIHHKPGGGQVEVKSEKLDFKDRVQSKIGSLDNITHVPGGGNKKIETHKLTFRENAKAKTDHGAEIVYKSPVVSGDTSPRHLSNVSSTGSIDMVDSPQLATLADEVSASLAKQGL

Assay [4] has the same target. Description: SPR, hIgG captured, Tau monomer analyte; unstressed sample. As for the experimental part: To assess the impact of N²⁸ deamidation on the affinity for human Tau, it was desirable to obtain two samples with widely separated N²⁸ deamidation status. Hu37D3-H9.v5 hIgG4.S228P was incubated at 40° C. for two weeks at a concentration of 1 mg/ml in Phosphate Buffered Saline, pH 7.4. Deamidation of the N²⁸G2⁹ motif was measured using LC-MS/MS. […] The stressed and unstressed antibodies were analyzed for Tau binding by surface plasmon resonance (Biacore) using the GE Biacore human IgG capture kit and a Series S CM5 chip. The hIgG were diluted to 2 μg/ml in 10 mM HEPES pH7.4, 150 mM NaCl, 0.05% Tween 20 (running buffer, HBSP) and captured at a flow rate of 10 μl/min for 15 seconds (t0 sample) or 17 seconds (t2 sample). […] Between cycles the surface was regenerated using a 30 second injection of 3M Magnesium Chloride at 10 μl/min. A 1:1 binding model was fitted to the data using instrument defaults, including local fitting of the “RI” parameter.

The target is the same in assay [5]. The assay can be described thus: SPR, hIgG captured, Tau monomer analyte; control sample.
For assay [6] the target is unchanged. The assay can be described thus: SPR, hIgG captured, Tau monomer analyte; stressed sample.
The target is the same in assay [7]. The assay can be described thus: SPR single-cycle, Tau monomer amine-coupled, Fab analyte; Fab, not IgG; Tau monomer on the chip. As to the method: Human monomer Tau protein was covalently coupled to a Biacore Series S CM5 chip using the Biacore Amine Coupling Kit (GE Life Sciences), resulting in immobilization to a level of approximately 128 RU. Direct binding of 37D3-H9 in both Fab and IgG formats was monitored using the single-cycle kinetics experimental format with five association periods of 300s each and antibody concentrations of 1, 2, 4, 8 and 16 nM (IgG) or 5, 10, 20, 40 and 80 nM (Fab). Dissociation was monitored for 7200 seconds (Fab) or for 14400 seconds (IgG). A value for the dissociation rate was calculated by fitting a 1:1 binding model to the data.

Where no end group is shown, it is not given here.

B1: hu37D3-H9.v5 hIgG1 (antibody, V domains shown)
VH: EVQLVESGGGLVQPGGSLRLSCAASGLIFRSYGMSWVRQAPGKGLEWVATINSGGTYTYYPDSVKGRFTISRDNSKNTLYLQMNSLRAEDTAVYYCANSYSGAMDYWGQGTLVTVSS
VL: EDVLTQTPLSLPVTPGQPASISCRSSQSIVHSNGNTYFEWYLQKPGQSPQLLIYKVSNRFSGVPDRFSGSGSGTDFTLKISRVEAEDVGVYYCFQGSLVPWTFGQGTKVEIK
notes: human IgG1, kappa
For orientation: Kd means the equilibrium constant for the complex coming apart. A word on the koff: it is the first-order rate constant of dissociation. In general, kon refers to a measure of how fast the partners come together. For the molecule B1, the values for the Kd in [1], in assay [2] and in [3] were 1 nM, 1.5 nM and 1 nM, respectively. The koff in assay [1] amounted to 0.0008 s⁻¹. In assay [1], the kon was determined as 750000 M⁻¹ s⁻¹. In addition, the binding result in the assay with MAPT(10-24), in the assay with MAPT(2-24) and in the assay with MAPT(2-34) was “binds” throughout.

B2: hu37D3-H9.v5 hIgG4.S228P (antibody, V domains shown)
VH: EVQLVESGGGLVQPGGSLRLSCAASGLIFRSYGMSWVRQAPGKGLEWVATINSGGTYTYYPDSVKGRFTISRDNSKNTLYLQMNSLRAEDTAVYYCANSYSGAMDYWGQGTLVTVSS
VL: EDVLTQTPLSLPVTPGQPASISCRSSQSIVHSNGNTYFEWYLQKPGQSPQLLIYKVSNRFSGVPDRFSGSGSGTDFTLKISRVEAEDVGVYYCFQGSLVPWTFGQGTKVEIK
notes: human IgG4 S228P, kappa; the t = 2 weeks sample is partly deamidated at light chain N28
Regarding B2, the Kd in assay [1] worked out at 1.3 nM; in assay [4], 0.7 nM; in [5], 1.5 nM; in assay [6], 1.5 nM. Further, the koff in [1] was determined as 0.0009 s⁻¹. Besides, the kon in assay [1] came out at 710000 M⁻¹ s⁻¹.

B3: 37D3-H9 Fab (Fab, V domains shown)
VH: EVQLVESGGDLAKPGGSLKLSCTASGLIFRSYGMSWVRQTPDKRLEWVATINSGGTYTYYPDSVKGRFTISRDNAKNTLYLQMSSLKSEDTAMYYCANSYSGAMDYWGQGTSVTVSS
VL: DDLLTQTPLSLPVSLGDPASISCRSSQSIVHSNGNTYFEWYLQKPGQSPKLLIYKVSNRFSGVPDRFSGSGSGTDFTLKISRVEAEDLGVYYCFQGSLVPWTFGGGTKLEIK
notes: Fab format
In the case of B3, the koff in assay [7] turned out to be 0.0005 s⁻¹.
